The record followed here is publication PMC3355305, “Localized Dimerization and Nucleoid Binding Drive Gradient Formation by the Bacterial Cell Division Inhibitor MipZ” (Molecular Cell, 2012).

This data set concerns the target MipZ dimer. Kind of data set: Effect of ParB and parS-containing plasmid DNA on the ATPase activity of MipZ. Format: biochemical, Caulobacter crescentus. Particulars: for Kd: read-out: K. An excerpt: Figure 3 Interaction of MipZ with FtsZ and ParB (A) Effect of different mutations on the activity of MipZ. Strains MT177 (WT), DK2 (K13A), MT178 (G14V), MT179 (K18Q), and MT197 (D42A) were cultivated for 8 hr in conditions that prevent expression of wild-type mipZ while inducing expression of the indicated mipZ-yfp allele (the scale bar represents 2 μm). (B) Effect of MipZ and its mutant derivatives on the GTPase activity of FtsZ. Shown are the turnover numbers (kcat) of FtsZ in the absence of additional proteins (–) or in the presence of different MipZ variants or BSA. Data represent the average of at least three independent experiments (±SD). (C and D) SPR analysis of the interaction between MipZ and ParB. ParB (3800 RU) was immobilized on a sensor chip and probed with the indicated MipZ proteins (6 μM) in the presence of ADP (C) or ATP (D). (E) Colocalization of mutant MipZ variants with ParB. Strains DK3 (K13A), DK5 (G14V), DK6 (K18Q), and DK7 (D42A) were induced for 8 hr to synthesize CFP-ParB and the indicated MipZ-YFP variants in place of wild-type MipZ (the scale bar represents 2 μm). […] (F) Two-hybrid analysis of the interaction between MipZ and ParB. E. coli BTH101 was transformed with pairs of plasmids encoding the indicated derivatives of the T18 and T25 fragments of adenylate cyclase, respectively. Interaction is evidenced by the formation of red colonies. Positive control (+): T25-zip:T18-zip. (G) Effect of ParB on the ATPase activity of MipZ. The average turnover number (kapp) of MipZ was determined over a range of different MipZ concentrations. When appropriate, the reactions were supplemented with ParB and/or parS-containing plasmid DNA (pMT428; 3.6 kb). The data were approximated by the model used in Figure 2F, yielding the following K and kcat values: MipZ alone (7.1 μM and 0.61 min^−1), + ParB (2.6 μM and 0.77 min^−1), + DNA (6.0 μM and 1.5 min^−1), + ParB and DNA (1.6 μM and 1.6 min^−1). See also Figure S4.
Previous work has shown that, in the presence of parS-containing DNA, ParB stimulates the ATPase activity of ParA/Soj up to 60-fold ([Leonard et al., 2005; Scholefield et al., 2011]), probably by accelerating the rate of nucleotide hydrolysis. […] To clarify this issue, we reanalyzed the concentration dependence of MipZ's ATPase activity (compare Figure 2F) in the presence of both ParB and/or a plasmid that carried a chromosomal fragment containing all predicted C. crescentus parS sites (Figure 3G). […] Consequently, the MipZ dimer might be able to interact with DNA independently of ParB (as detailed below), leading to conformational adjustments that enhance its hydrolytic potential. […] Collectively, these findings argue against a role of ParB as an ATPase-activating factor. […]
obtained from crystals flash frozen in a solution of 95% 2 mM, sa mp le s were taken and analyzed for the amount ethanol/50 mM Tris (pH 8.5), and collected at ID23-2, of [α-32P]-GDP produced in the reaction as described ESRF (Grenoble, France). For apo-MipZ in crystal above. form 2, 768 standard conditions were screened in 200 nl To analyze the concentration dependence of MipZ’s sitting drops using a Microsys 4004 Cartesian robotics ATPase activity, varying amounts of MipZ were system and MipZ at a concentration of 10 mg/ml. incubated in buffer P containing 2 mM [α-32P]-ATP and Crystals obtained in a buffer containing 100 mM Hepes 0.3 mg/ml bovine serum albumin and assayed for (pH 7.5), 10% PEG 10000, 4% ethylene glycol and 30% hydrolytic activity as described above. glycerol were flash-frozen, and data were collected at To determine the effect of ParB on MipZ’s ATPase ID23-1, ESRF. activity, varying amounts of MipZ were incubated with All crystals were indexed and integrated using the ParB (4.5 µM) and/or plasmid pMT428 (3.6 kb, 0.2 MOSFLM package and further processed using the µM), which bears a chromosomal fragment containing […]

Read-outs that look alike come from different tables or passages of the source.

B1: MipZ: P loop ATPase and cell division inhibitor of Caulobacter crescentus; hexahistidine-tagged in vitro, YFP fusion in FRAP (protein)
chain: MAETRVIVVGNEKGGAGKSTIAVHLVTALLYGGAKVAVIDLDLRQRTSARFFENRRAWLDNKKIELPEPLALNLSDNDVALAERPEEEQVAGFEAAFARAMAECDFILIDTPGGDSAITRMAHGRADLVVTPMNDSFVDFDMLGTVDPVTLELTKPSLYSLTVWEGRKQRALSGQRQAMDWVVLRNRLATTEARNRKRLEDRLNALAKRVGFRIGPGLRDRVIYRELFPFGLTIADLSPQVRPVPVSLQHLAARQELRALMHSLGLSAYSGETMLAAQ
modifications: left off: His6, end not stated, state not stated
notes: hexahistidine-tagged in vitro, YFP fusion in FRAP
As a reminder, the kcat is the maximal rate divided by the concentration of active sites. Take B1: the Kd reads like this: (+ DNA (pMT428, 0.2 µM)) 6 µM; (+ ParB (4.5 µM)) 2.6 µM; (+ ParB and DNA) 1.6 µM; (MipZ alone) 7.1 µM. The kcat (MipZ alone) is 0.0102 s⁻¹. In addition, the “increase in the catalytic activity of the dimeric complex (kcat)” value (upon addition of DNA) is ~2 fold. Also, the “decrease in the apparent equilibrium dissociation constant of the dimeric complex” value (upon addition of ParB) was ~4 fold.
